These results are taken from the Immune Epitope Database (IEDB).

The target in one assay is HLA-A*01:01. In words: IEDB peptide-MHC binding, purified MHC/direct/fluorescence; filed as Kd, often an IC50 or EC50 that approximates it; ≥ and ≤ were set here for values at or beyond the usual limits of such assays.
In another assay the target is HLA-A*02:01. The description is as above.
Another assay has as its target HLA-A*03:01. The description is as above.
Another assay has as its target HLA-A*24:02. Described as above.
Another assay addresses HLA-A*26:01. Described as above.
A further assay addresses HLA-A*69:01. The description is as above.
Assay [1] deals with HLA-B*07:02. Described as above.
The target of assay [2] is HLA-B*08:01. The assay is described as above.
For a further assay, the target named is HLA-B*08:02. The description is as above.
A further assay addresses HLA-B*15:01. The description is as above.
Another assay concerns the target HLA-B*18:01. Described as above.
The target in the next assay is HLA-B*27:05. The assay is described as above.
The target of a further assay is HLA-B*40:01. Described as above.
Another assay has as its target HLA-B*44:02. The description is as above.
In a further assay the target is HLA-B*46:01. The description is as above.
The target of a further assay is HLA-B*58:01. Described as above.
A further assay concerns the target HLA-A*11:01. The assay is described as above.
In another assay the target is HLA-A*31:01. Described as above.
The target in a further assay is HLA-C*05:01. The description is as above. The settings on record: source organism: Variola virus.
Assay [3] deals with HLA-B*07:02. In words: IEDB peptide-MHC binding, purified MHC/competitive/radioactivity; filed as Kd, often an IC50 or EC50 that approximates it; ≥ and ≤ were set here for values at or beyond the usual limits of such assays. Conditions: source organism: Vaccinia virus WR.
The next assay addresses HLA-B*35:01. Described as above. The settings on record: source organism: Vaccinia virus WR.
The target in assay [4] is HLA-B*51:01. Described as above. Conditions: source organism: Vaccinia virus WR.
The target of another assay is HLA-B*53:01. The description is as above. Conditions: source organism: Vaccinia virus WR.
A further assay has as its target HLA-B*54:01. Described as above. Conditions: source organism: Vaccinia virus WR.
Another assay has as its target HLA-A*26:02. In words: IEDB peptide-MHC binding, purified MHC/direct/fluorescence; filed as Kd, often an IC50 or EC50 that approximates it; ≥ and ≤ were set here for values at or beyond the usual limits of such assays. Conditions: source organism: Influenza A virus (A/Taiwan/2/2006(H1N1)).
The target in another assay is HLA-B*15:17. The description is as above. Conditions: source organism: Influenza A virus (A/chicken/Hubei/wm/1997(H5N1)).
The next assay concerns the target HLA-B*48:01. The assay is described as above. Conditions: source organism: Influenza A virus (A/chicken/Hubei/wm/1997(H5N1)).
The target in the next assay is HLA-B*57:01. The assay is described as above. Conditions: source organism: Influenza A virus (A/chicken/Hubei/wm/1997(H5N1)).
Another assay has as its target HLA-A*30:01. Put plainly: IEDB peptide-MHC binding, purified MHC/competitive/fluorescence; filed as Kd, often an IC50 or EC50 that approximates it; ≥ and ≤ were set here for values at or beyond the usual limits of such assays. Conditions: source organism: Influenza A virus (A/X-31(H3N2)).
Assay [5] has as its target HLA-B*07:02. The assay is described as above. Conditions: source organism: Yersinia mollaretii ATCC 43969.
Assay [6] has as its target HLA-B*08:01. The description is as above. Conditions: source organism: Yersinia mollaretii ATCC 43969.
The target in assay [7] is HLA-B*51:01. The assay is described as above. The settings on record: source organism: Yersinia mollaretii ATCC 43969.
Setting [8] is: source organism: Influenza A virus (A/swine/Korea/S190/2004(H9N2)).
Where [9] appears, read: source organism: Influenza A virus (A/Puerto Rico/8/34/Mount Sinai(H1N1)).
Setting [10] is: source organism: Influenza A virus H3N2.
Setting [11] is: source organism: Cryptosporidium parvum.
[12] abbreviates: source organism: Escherichia coli O157:H7.
Where [13] appears, read: source organism: Influenza A virus (A/Hong Kong/485/1997(H5N1)).
[14] abbreviates: source organism: Influenza A virus (A/chicken/Hubei/wm/1997(H5N1)).
Setting [15] is: source organism: Influenza A virus (A/chicken/Vietnam/5/2003(H5N1)).
The mark [16] stands for this setting: source organism: Influenza A virus(A/swine/Henan/3/2004(H9N2)).

Bounds are passed on as bounds.

On to ATTHSWIPK, for which the equilibrium dissociation constant (Kd) was ≥ 20 µM with HLA-A*01:01 (setting [8]); ≥ 20 µM with HLA-A*02:01 (setting [8]); 0.826 µM with HLA-A*03:01 (setting [9]); ≥ 20 µM with HLA-A*24:02 (setting [8]); ≥ 20 µM with HLA-A*26:01 (setting [10]); ≥ 20 µM with HLA-A*69:01 (setting [8]). Besides, the Kd in the assay with HLA-B*07:02 [1] (setting [8]), with HLA-B*08:01 [2] (setting [8]), with HLA-B*08:02 (setting [10]), with HLA-B*15:01 (setting [8]), with HLA-B*18:01 (setting [8]) and with HLA-B*27:05 (setting [8]) was ≥ 20 µM in each case. Moreover, the Kd with HLA-B*40:01 (setting [8]), in the assay with HLA-B*44:02 (setting [8]), with HLA-B*46:01 (setting [8]) and with HLA-B*58:01 (setting [8]) was ≥ 20 µM in each case.

IINAHRIPK: the Kd with HLA-A*01:01 (setting [11]) is ≥ 20 µM; with HLA-A*03:01 (setting [11]), 0.0825 µM; with HLA-A*11:01 (setting [11]), 0.0267 µM; with HLA-A*24:02 (setting [11]), ≥ 20 µM; in the assay with HLA-A*26:01 (source organism: Cryptosporidium parvum Iowa II), ≥ 20 µM; with HLA-A*31:01 (setting [11]), 0.0316 µM. Also, the Kd in the assay with HLA-A*69:01 (setting [11]), with HLA-B*07:02 [1] (setting [11]), with HLA-B*15:01 (setting [11]), with HLA-B*18:01 (setting [11]), in the assay with HLA-B*27:05 (setting [11]) and with HLA-B*40:01 (setting [11]) was ≥ 20 µM throughout. Further, the Kd with HLA-B*44:02 (setting [11]) and with HLA-B*58:01 (setting [11]) was ≥ 20 µM each time.

As for PILPKLFIL, the Kd with HLA-A*01:01 (setting [12]) is ≥ 20 µM; with HLA-A*02:01 (setting [12]) it was 5.7 µM; with HLA-A*03:01 (setting [12]), ≥ 20 µM; with HLA-A*24:02 (setting [12]), ≥ 20 µM; with HLA-B*07:02 [1] (setting [12]), ≥ 20 µM; with HLA-B*15:01 (setting [12]), ≥ 20 µM. The dissociation constant Kd with HLA-B*18:01 (setting [12]), in the assay with HLA-B*27:05 (setting [12]), with HLA-B*40:01 (setting [12]), with HLA-B*44:02 (setting [12]), in the assay with HLA-B*46:01 (setting [12]) and in the assay with HLA-B*58:01 (setting [12]) was ≥ 20 µM in each case.

In the case of LPMIIGEPI, the Kd is ≥ 20 µM with HLA-C*05:01; 0.000255 µM in the assay with HLA-B*07:02 [3]; 0.0645 µM in the assay with HLA-B*35:01; 0.00117 µM with HLA-B*51:01 [4]; 0.0056 µM with HLA-B*53:01; 0.00157 µM with HLA-B*54:01.

As to QMRDVLGTF, the Kd in the assay with HLA-A*01:01 (setting [13]) was ≥ 20 µM; in the assay with HLA-A*02:01 (setting [13]), ≥ 20 µM; with HLA-A*03:01 (setting [13]) it was ≥ 20 µM; in the assay with HLA-A*11:01 (setting [13]) it was ≥ 20 µM; with HLA-A*24:02 (setting [13]) it was ≥ 20 µM; with HLA-A*26:01 (source organism: Influenza A virus (A/Hong Kong/507/97(H5N1))) it was 0.135 µM. Also, the Kd is ≥ 20 µM in the assay with HLA-A*31:01 (setting [13]); 0.381 µM in the assay with HLA-B*07:02 [1] (setting [9]); 0.066 µM with HLA-B*15:01 (setting [9]); ≥ 20 µM in the assay with HLA-B*27:05 (setting [13]); ≥ 20 µM in the assay with HLA-B*40:01 (setting [13]); ≥ 20 µM with HLA-B*44:02 (setting [13]). Further, in the assay with HLA-B*58:01 (setting [13]), the Kd was ≥ 20 µM.

EKPKFLPDL: the Kd in the assay with HLA-A*01:01 (setting [14]), with HLA-A*02:01 (setting [14]), with HLA-A*03:01 (setting [14]), in the assay with HLA-A*11:01 (setting [14]), with HLA-A*26:01 (setting [14]) and with HLA-A*26:02 was ≥ 20 µM each time. For the same sequence, the equilibrium dissociation constant (Kd) with HLA-A*31:01 (setting [14]), in the assay with HLA-A*69:01 (setting [14]), with HLA-B*07:02 [1] (setting [14]), in the assay with HLA-B*15:01 (setting [14]), with HLA-B*15:17 and in the assay with HLA-B*18:01 (setting [14]) was ≥ 20 µM throughout. Besides, the Kd in the assay with HLA-B*27:05 (setting [14]), with HLA-B*40:01 (setting [14]), with HLA-B*46:01 (setting [14]), in the assay with HLA-B*48:01, with HLA-B*57:01 and with HLA-B*58:01 (setting [14]) was ≥ 20 µM in each case. For the same sequence, the Kd with HLA-A*30:01 is ≥ 20 µM.

Regarding RVDKLTQGR, the Kd with HLA-A*01:01 (setting [15]) was ≥ 20 µM; with HLA-A*02:01 (setting [15]), ≥ 20 µM; in the assay with HLA-A*03:01 (setting [9]), ≥ 10 µM; with HLA-A*24:02 (setting [15]) it was ≥ 20 µM; with HLA-A*26:01 (setting [16]) it was ≥ 20 µM; with HLA-A*69:01 (setting [15]), ≥ 20 µM. Also, the Kd in the assay with HLA-B*07:02 [1] (setting [15]), with HLA-B*08:01 [2] (setting [15]), with HLA-B*08:02 (setting [16]), in the assay with HLA-B*15:01 (setting [15]), with HLA-B*18:01 (setting [15]) and in the assay with HLA-B*27:05 (setting [15]) was ≥ 20 µM each time. Also, the Kd with HLA-B*40:01 (setting [15]), in the assay with HLA-B*44:02 (setting [15]), with HLA-B*46:01 (setting [15]) and with HLA-B*58:01 (setting [15]) was ≥ 20 µM throughout.

On to MPMYAIHKV, for which the Kd with HLA-B*07:02 [5] came to 0.0267 µM; in the assay with HLA-B*08:01 [6] it was 1.87 µM; with HLA-B*51:01 [7], 1.14 µM.
